Laboratory results taken from patent publication USRE47150 (Bayer, dated 2018).
Numbering of substitutions follows the chain as printed. Names may count otherwise.

T1: human tissue factor pathway inhibitor (TFPI) (human, UniProt P10646 29-304, limits assumed)
T1 construct: bought; also called hTFPI; human TFPI
T1 sequence (looked up): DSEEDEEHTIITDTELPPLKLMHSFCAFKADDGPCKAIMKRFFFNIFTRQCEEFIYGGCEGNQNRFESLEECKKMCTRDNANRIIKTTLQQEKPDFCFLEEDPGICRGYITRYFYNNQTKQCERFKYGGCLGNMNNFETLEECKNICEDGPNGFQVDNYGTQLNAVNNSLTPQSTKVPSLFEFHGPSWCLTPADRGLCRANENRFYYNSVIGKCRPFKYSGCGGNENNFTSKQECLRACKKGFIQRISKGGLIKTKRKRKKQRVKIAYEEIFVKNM

T2: mouse tissue factor pathway inhibitor (TFPI) (mouse, UniProt O54819 29-289, limits assumed)
T2 construct: bought; also called mTFPI; murine TFPI
T2 sequence (looked up): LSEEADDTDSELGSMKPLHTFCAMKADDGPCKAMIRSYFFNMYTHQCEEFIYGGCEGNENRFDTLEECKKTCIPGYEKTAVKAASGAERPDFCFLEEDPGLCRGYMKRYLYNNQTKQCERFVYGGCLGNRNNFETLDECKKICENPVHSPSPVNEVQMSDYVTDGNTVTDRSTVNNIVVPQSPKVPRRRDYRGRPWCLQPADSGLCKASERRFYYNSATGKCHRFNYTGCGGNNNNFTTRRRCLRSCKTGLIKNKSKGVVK

B1: 2A8 HC_G33P (Fab, V domains shown)
VH: QVQLVESGGGLVQPGGSLRLSCAASGFTFRSYPMSWVRQAPGKGLEWVSSIRGSSSSTYYADSVKGRFTISRDNSKNTLYLQMNSLRAEDTAVYYCARKYRYWFDYWGQGTLVTVSS
VL: DIELTQPPSVSVAPGQTARISCSGDNLRNYYAHWYQQKPGQAPVVVIYYDNNRPSGIPERFSGSNSGNTATLTISGTQAEDEADYYCQSWDDGVPVFGGGTKLTVLG
notes: also called 2A8-1
B2: 2A8 HC_S31V (Fab, V domains shown)
VH: B1 VH with S31V, P33G
VL: B1 VL
notes: also called 2A8-3
B3: 2A8 LC_D91K (Fab, V domains shown)
VH: B1 VH with P33G
VL: B1 VL with D91K
notes: also called 2A8-15
B4: 2A8 HC_S35D (Fab, V domains shown)
VH: B1 VH with P33G, S35D
VL: B1 VL
notes: also called 2A8-4
B5: 2A8 HC_K99V (Fab, V domains shown)
VH: B1 VH with P33G, K99V
VL: B1 VL
notes: also called 2A8-10
B6: 2A8 HC_S55R (Fab, V domains shown)
VH: B1 VH with P33G, S55R
VL: B1 VL
notes: also called 2A8-8
B7: 2A8 LC_A32N (Fab, V domains shown)
VH: B1 VH with P33G
VL: B1 VL with A32N
notes: also called 2A8-11
B8: 2A8 HC_S54F (Fab, V domains shown)
VH: B1 VH with P33G, S54F
VL: B1 VL
notes: also called 2A8-7
B9: 2A8 HC_S31P (Fab, V domains shown)
VH: B1 VH with S31P, P33G
VL: B1 VL
notes: also called 2A8-2
B10: 2A8 HC_I51E (Fab, V domains shown)
VH: B1 VH with P33G, I51E
VL: B1 VL
notes: also called 2A8-6
B11: 2A8 LC_Y48F (Fab, V domains shown)
VH: B1 VH with P33G
VL: B1 VL with Y48F
notes: also called 2A8-14
B12: 2A8 LC_D91L (Fab, V domains shown)
VH: B1 VH with P33G
VL: B1 VL with D91L
notes: also called 2A8-16
B13: 2A8 LC_D91W (Fab, V domains shown)
VH: B1 VH with P33G
VL: B1 VL with D91W
notes: also called 2A8-17
B14: 2A8 LC_N51V (Fab, V domains shown)
VH: B1 VH with P33G
VL: B1 VL with N51V
notes: also called 2A8-13
B15: 2A8-227 (HC S35D+K99L/LC Y48F+D91L+V96W) (Fab, V domains shown)
VH: B1 VH with P33G, S35D, K99L
VL: B1 VL with Y48F, D91L, V96W
B16: 4B7 wild-type Fab (Fab, V domains shown)
VH: QVQLQQSGPGLVKPSQTLSLTCAISGDSVSSNSAAWSWIRQSPGRGLEWLGIIYKRSKWYNDYAVSVKSRITINPDTSKNQFSLQLNSVTPEDTAVYYCARWHSDKHWGFDYWGQGTLVTVSS
VL: DIVMTQSPLSLPVTPGEPASISCRSSQSLVFSDGNTYLNWYLQKPGQSPQLLIYKGSNRASGVPDRFSGSGSGTDFTLKISRVEAEDVGVYYCQQYDSYPLTFGQGTKVEIKR
notes: Fab with HA (or c-myc) and 6xHis tag at the C-terminus of the heavy chain; also called 4B7wt; parental 4B7

target: T1, human tissue factor pathway inhibitor …; assay: competitive ELISA

| variant/wild-type | Binder |
| --- | --- |
| 5.1 ratio | B1 |
| 9.7 ratio | B2 |
| 3.5 ratio | B3 |
| 4.3 ratio | B4 |
| 7.5 ratio | B5 |
| 4.4 ratio | B6 |
| 3.5 ratio | B7 |
| 6.5 ratio | B8 |
| 3.6 ratio | B9 |
| 7.3 ratio | B10 |
| 4.6 ratio | B11 |
| 4.2 ratio | B12 |
| 7.4 ratio | B13 |
| 4.4 ratio | B14 |

target: T2, mouse tissue factor pathway inhibitor …; assay: competitive ELISA

| variant/wild-type | Binder |
| --- | --- |
| 2.9 ratio | B1 |
| 7.4 ratio | B2 |
| 1.4 ratio | B3 |
| 2.6 ratio | B4 |
| 3.9 ratio | B5 |
| 2.1 ratio | B6 |
| 2 ratio | B7 |
| 3.1 ratio | B8 |
| 2.4 ratio | B9 |
| 0.7 ratio | B10 |
| 3.2 ratio | B11 |
| 1.6 ratio | B12 |
| 4 ratio | B13 |
| 2 ratio | B14 |

target: T1, human tissue factor pathway inhibitor …; assay: competitive ELISA; remark: another data set of the same source

| variant/HC_K99L | Binder |
| --- | --- |
| 18.8 ratio | B15 |

target: T2, mouse tissue factor pathway inhibitor …; assay: competitive ELISA; remark: another data set of the same source

| variant/HC_K99L | Binder |
| --- | --- |
| 18.2 ratio | B15 |

target: T1, human tissue factor pathway inhibitor …; assay: SPR, TFPI immobilized

| Improvement | Kd | koff | kon | Binder |
| --- | --- | --- | --- | --- |
| 1 fold | 11.1 nM | 0.0084 s⁻¹ | 756000 M⁻¹ s⁻¹ | B16 |
| 2.7 fold | 0.827 nM | 0.00224 s⁻¹ | 2.71e+06 M⁻¹ s⁻¹ | B1 |
| 6 fold | 0.373 nM | 0.00143 s⁻¹ | 3.84e+06 M⁻¹ s⁻¹ | B2 |
| 4.64 fold | 0.482 nM | 0.00209 s⁻¹ | 4.33e+06 M⁻¹ s⁻¹ | B3 |
| 2.35 fold | 0.95 nM | 0.0038 s⁻¹ | 4.01e+06 M⁻¹ s⁻¹ | B4 |
| 2.25 fold | 0.995 nM | 0.00254 s⁻¹ | 2.55e+06 M⁻¹ s⁻¹ | B5 |
| 2.44 fold | 0.917 nM | 0.00394 s⁻¹ | 4.3e+06 M⁻¹ s⁻¹ | B6 |
| 1.47 fold | 1.52 nM | 0.0041 s⁻¹ | 2.7e+06 M⁻¹ s⁻¹ | B7 |
| 3.08 fold | 0.727 nM | 0.00204 s⁻¹ | 2.81e+06 M⁻¹ s⁻¹ | B8 |
| 1.95 fold | 1.15 nM | 0.00333 s⁻¹ | 2.91e+06 M⁻¹ s⁻¹ | B9 |
| 1.78 fold | 1.26 nM | 0.00162 s⁻¹ | 1.29e+06 M⁻¹ s⁻¹ | B10 |
| 1.97 fold | 1.14 nM | 0.003 s⁻¹ | 2.64e+06 M⁻¹ s⁻¹ | B11 |
| 2.24 fold | 0.999 nM | 0.0044 s⁻¹ | 4.41e+06 M⁻¹ s⁻¹ | B12 |
| 2 fold | 1.12 nM | 0.00432 s⁻¹ | 3.86e+06 M⁻¹ s⁻¹ | B13 |
| 4.32 fold | 0.518 nM | 0.0022 s⁻¹ | 4.26e+06 M⁻¹ s⁻¹ | B14 |

target: T2, mouse tissue factor pathway inhibitor …; assay: SPR, TFPI immobilized

| Improvement | Kd | koff | kon | Binder |
| --- | --- | --- | --- | --- |
| 1 fold | 58.6 nM | 0.128 s⁻¹ | 2.18e+06 M⁻¹ s⁻¹ | B16 |
| 2.21 fold | 1.59 nM | 0.00145 s⁻¹ | 912000 M⁻¹ s⁻¹ | B1 |
| 5.91 fold | 0.595 nM | 0.00202 s⁻¹ | 3.39e+06 M⁻¹ s⁻¹ | B2 |
| 1.78 fold | 1.98 nM | 0.00246 s⁻¹ | 1.25e+06 M⁻¹ s⁻¹ | B4 |
| 1.69 fold | 2.07 nM | 0.00183 s⁻¹ | 884000 M⁻¹ s⁻¹ | B8 |
| 1.71 fold | 2.06 nM | 0.00316 s⁻¹ | 1.53e+06 M⁻¹ s⁻¹ | B9 |
| 4.32 fold | 0.814 nM | 0.00232 s⁻¹ | 2.86e+06 M⁻¹ s⁻¹ | B13 |

target: T1, human tissue factor pathway inhibitor …; assay: SPR, TFPI immobilized; remark: another data set of the same source

| KD fold improvement | Kd | koff | kon | Binder |
| --- | --- | --- | --- | --- |
| 49.4 fold | 0.0375 nM | 0.000123 s⁻¹ | 3.28e+06 M⁻¹ s⁻¹ | B15 |

target: T1, human tissue factor pathway inhibitor …; assay: SPR, TFPI immobilized; remark: another data set of the same source

| KD fold improvement | Kd | koff | kon | Binder |
| --- | --- | --- | --- | --- |
| 1 fold | 11.1 nM | 0.0084 s⁻¹ | 756000 M⁻¹ s⁻¹ | B16 |

target: T2, mouse tissue factor pathway inhibitor …; assay: SPR, TFPI immobilized; remark: another data set of the same source

| KD fold improvement | Kd | koff | kon | Binder |
| --- | --- | --- | --- | --- |
| 21.4 fold | 0.153 nM | 0.00106 s⁻¹ | 6.91e+06 M⁻¹ s⁻¹ | B15 |

target: T2, mouse tissue factor pathway inhibitor …; assay: SPR, TFPI immobilized; remark: another data set of the same source

| KD fold improvement | Kd | koff | kon | Binder |
| --- | --- | --- | --- | --- |
| 1 fold | 54.7 nM | 0.172 s⁻¹ | 3.15e+06 M⁻¹ s⁻¹ | B16 |

target: recombinant TFPI of the FXa restoring assay (human, mouse or rat; not specified for Tables 9 and 10); assay: cell-based or functional assay

| IC50, FXa restoring assay | Improvement vs parental, FXa restoring assay | Binder |
| --- | --- | --- |
| 1.46 µg/mL | 1 fold | B16 |
| 0.201 µg/mL | 3.5 fold | B2 |
| 0.34 µg/mL | 1.9 fold | B3 |
| 0.55 µg/mL | 1.1 fold | B4 |
| 0.39 µg/mL | 1.6 fold | B5 |
| 0.35 µg/mL | 2 fold | B8 |
| 0.33 µg/mL | 1.7 fold | B9 |
| 0.76 µg/mL | 0.9 fold | B10 |
| 0.34 µg/mL | 1.9 fold | B11 |
| 0.37 µg/mL | 1.7 fold | B12 |
| 0.23 µg/mL | 3 fold | B13 |
